Data as given in the RNAGym collection of RNA variant scans (doi:10.1073/pnas.2313332121).
This sample holds only a part of the variants without activity.

B1: TPR 5TU (parent)
chain: GGAUCUUCUCGAUCUAACAAAAAAGACAAAUCUGCCACAAAGCUUGAGAGCAUCUUCGGAUGCAGAGGCGGCAGCCUUCGGUGGCGCGAUAGCGCCAACGUUCUCAACUAUGACACGCAAAACGCGUGCUCCGUUGAAUGGAGUUUAUCAUG

Variants of: B1
Assay: polymerase ribozyme fitness, log enrichment relative to wild type (log ratio); higher = more active; in vitro selection for triplet polymerase activity
Outline: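 Streptavidin-bead capture of gel-excised extended constructs, followed by RT-PCR, closed a single triplicate in vitro selection round. That round began by annealing PCR-built, transcribed mutant libraries of each subunit of a heterodimeric triplet polymerase ribozyme with a biotinylated primer, the partner subunit and triplets, then incubating them frozen at −7 °C. After Illumina sequencing of inputs and outputs, genotypes needed ≥10 input reads and ≥1 read per output. Fitness is the base-2 logarithm of genotype enrichment over wild-type enrichment, using inverse-variance-weighted replicate averages.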

| Variant | polymerase ribozyme fitness (log ratio) |
| --- | --- |
| G92A G117C | -2.82 |
| G92A C99U G117U U151G | ≤ -4.2 |
| G92A C116A G143C A150G | ≤ -4.2 |
| G92U C116U | 0.0946 |
| G92U C93U A138C | ≤ -4.2 |
| C93U C118A C125A U139C | -4.16 |
| C93A G136U | -4.17 |
| C93A G136A | -1.14 |
| A91U A147G | ≤ -4.2 |
| C93U A97U C116A G133A | ≤ -4.2 |
| A91U A142U | -3.67 |
| A91G U130G | ≤ -4.2 |
| G92U G133U | -3.41 |
| G92C U101G G117C | -1.52 |
| C93U U135A | -2.01 |
| C93U U135C | -2.76 |
| A91U C108A C114A C129A U146A | ≤ -4.2 |
| C93U A97U C125A | -2.13 |
| C93U C99U | -2.8 |
| C93U C99G | -1.97 |
| C93U C99A | -3.72 |
| G94A G133C | -2.71 |
| G94A G133U | -3.19 |
| C93U G94U | -1.43 |

| Variant | polymerase ribozyme fitness (log ratio) |
| --- | --- |
| C93U A106C C129G G143A | -3.64 |
| C93A G126A A137G | -2.09 |
| G94C C131U | -1.79 |
| A91G C96U A106G | -2.5 |
| G94A A119U | -2.21 |
| G92A A107G | ≤ -4.2 |
| G92U C96U A97U A115U A121U | -2.82 |
| C93U C95U U102A A106G | -2.87 |
| C93G C149U | -4.08 |
| A91G A120G | -2.98 |
| C93U G133C | -2.76 |
| C93U G143C | -3.12 |
| G92A G136C | -3.83 |
| C93A A113U | -4.07 |
| C93U A107U | -4.04 |
| G94A C116G | 0.466 |
| G94C A97U G136C | -3.35 |
| C93U G141A U146G | -3.48 |
| G94A U139C | -3.82 |
| C93G C123U G141U | -2.27 |
| C93U U101A | -2.19 |
| C93A G140A | -4.11 |
| G92A U144C A147U | -3.46 |
| G94A G124A A150U | 0.987 |

| Variant | polymerase ribozyme fitness (log ratio) |
| --- | --- |
| A91U A97G | -3.67 |
| G92A C118G | -3.69 |
| C93U C149G | -4.08 |
| C93U C149U | -1.57 |
| G92U | -0.671 |
| G92A | -2.51 |
| G92C | -0.459 |
| A91G U145A | -3.07 |
| A91G U145G | -3.96 |
| C93G C108U | -3.94 |
| C93G C108G | -3.9 |
| G92U U104G C132U | -2.5 |
| G92A U148C | -4.02 |
| A91G | -2.77 |
| A91C G126A | -4.03 |
| G94C A107G | -3.89 |
| A91U U145A | -4 |
| G92U C96A G136C | -3.56 |
| C93A U104G | -2.89 |
| G92A U135A U145C | -3.89 |
| C93U C125A | -2.69 |
| C93U C125G | -1.79 |
| C93U C95U C149A | ≤ -4.2 |
| C93U U109C | ≤ -4.2 |

| Variant | polymerase ribozyme fitness (log ratio) |
| --- | --- |
| C93G A115G C131U | -3.48 |
| G92C A142U | -2.07 |
| G92C U101G | -0.874 |
| C93G C105A A107G G141U | ≤ -4.2 |
| G94C A122C A137U | -4.05 |
| G94A A110G | -2.35 |
| C93G G94U C95A G128A | ≤ -4.2 |
| G94C A97G C116A | -0.587 |
| G92A C105A | -3.36 |
| C93A U101C G124U | -2.74 |
| C93G A142U | -3.03 |
| C93G A142C | -4.02 |
| C93G C96U | -3.61 |
| G92U U101G | 0.0893 |
| C93U A142C | -0.842 |
| C93U A142U | -1.68 |
| G92C A115U | -1.86 |
| A91U A106U G117A G136U | ≤ -4.2 |
| G92U U146A | -0.393 |
| A91G G94A | -3.47 |
| G92U A97C | -0.00996 |
| G94A U146G | -1.25 |
| C93A A138G G143C | -3.66 |
| A91U C103U U145A | ≤ -4.2 |

| Variant | polymerase ribozyme fitness (log ratio) |
| --- | --- |
| A91G C93U | -3.88 |
| A91G A106G | -1.93 |
| A91U G140U | ≤ -4.2 |
| C93G A107G | ≤ -4.2 |
| G92A U104A A106C C108A | ≤ -4.2 |
| C93U C116U | -0.9 |
| C93U C99G G136A | -0.753 |
| C93G G140C | ≤ -4.2 |
| A91C G152U | ≤ -4.2 |
| G94A C116G C123G | 0.258 |
| G92A C105A A147U | -4.16 |
| G92U U148A | -2.71 |
| G92C C116G | -1.52 |
| G92U A138C | -3.95 |
| C93U G117A A142C | -4.07 |
| G92C C132U | -1.6 |
| G94A U104C C149U | -1.16 |
| G92C U104G | -1.85 |
| G92C U104C | -1.35 |
| C93U G140U | -3.59 |
| C93A U148G G152U | ≤ -4.2 |
| G94A G143A | -1.01 |
| G94A G143U | -3.57 |
| A91U C95G C116A G143U A147C | ≤ -4.2 |

| Variant | polymerase ribozyme fitness (log ratio) |
| --- | --- |
| G92U G141C | -1.87 |
| G92U G141A | -1.81 |
| G92U G94C A106G C123A U145C | -1.97 |
| C93A G124A | -2.59 |
| A91G G92A C125G C129G A137G | ≤ -4.2 |
| C93A A98G | -1.81 |
| G94A C123G U146G | -1.05 |
| C93U C123G A138C | ≤ -4.2 |
| G94C C116U | -0.0318 |
| G92U C95U A137U | -4.11 |
| C93U C95G | -2.26 |
| G94A C96U C99G U144G | ≤ -4.2 |
| C93G U145G | -2.53 |
| C93G A147U | -1.74 |
| G92A U127G | -3.27 |
| G92A U127A | -3.83 |
| G92A G100C | -4.07 |
| C93U C114A | -3.41 |
| C93U U134A | -4.01 |
| G92A G141A | -2.48 |
| G92A G141C | -3.71 |
| G94A G141A A150U | ≤ -4.2 |
| G94A U101G | -0.0834 |
| C93G A97G G140C A147U C149G | ≤ -4.2 |

| Variant | polymerase ribozyme fitness (log ratio) |
| --- | --- |
| G92U G136C | -3.44 |
| C93G A119C | -3.47 |
| C93A A110U | -3.99 |
| C93A C105U | -2.67 |
| C93A C96U | -3.3 |
| C93A C96A | -3.78 |
| C93U A106C | -1.75 |
| C93A C132A | ≤ -4.2 |
| C93A C116U | -1.88 |
| C93A U127A G133U G140U | ≤ -4.2 |
| G92A A113C | -4.16 |
| G94A A106G C131G | ≤ -4.2 |
| C93A C125U | -2.47 |
| C93A A107U A110G C114U U127G | ≤ -4.2 |
| A91G U144G | -2.02 |
| G92U U145A | 0.602 |
| G92A C116G C123G | -2.92 |
| C93U A119G G143U U145G | -3.92 |
| A91G A121U | -3.01 |
| C93G C116U | -3.07 |
| C93A G117U | -1.92 |
| G94C A97G A121U A122U | -0.691 |
| A91G U139G | -3.56 |
